{"source": "patent US20030143198", "proteins": {"B1": {"name": "6-his tagged N-terminally truncated caspase 5 (protein)", "chain": "MGHHHHHHGILKLCPREEFLRLCKKNHDEIYPIKKREDRRRLALIICNTKFDHLPARNGAHYDIVGMKRLLQGLGYTVVDEKNLTARDMESVLRAFAARPEHKSSDSTFLVLMSHGILEGICGTAHKKKKPDVLLYDTIFQIFNNRNCLSLKDKPKVIIVQACRGEKHGELWVRDSPASLAVISSQSSENLEADSVCKIHEEKDFIAFCSSTPHNVSWRDRTRGSIFITELITCFQKYSCCCHLMEIFRKVQKSFEVPQAKAQMPTIERATLTRDFYLFPGN"}, "B2": {"name": "Ubiquitin protease 1 (Ubp-1), full-length (protein)", "chain": "MDLFIESKINSLLQFLFGSRQDFLRNFKTWSNNNNNLSIYLLIFGIVVFFYKKPDHLNYIVESVSEMTTNFRNNNSLSRWLPRSKFTHLDEEILKRGGFIAGLVNDGNTCFMNSVLQSLASSRELMEFLDNNVIRTYEEIEQNEHNEEGNGQESAQDEATHKKNTRKGGKVYGKHKKKLNRKSSSKEDEEKSQEPDITFSVALRDLLSALNAKYYRDKPYFKTNSLLKAMSKSPRKNILLGYDQEDAQEFFQNILAELESNVKSLNTEKLDTTPVAKSELPDDALVGQLNLGEVGTVYIPTEQIDPNSILHDKSIQNFTPFKLMTPLDGITAERIGCLQCGENGGIRYSVFSGLSLNLPNENIGSTLKLSQLLSDWSKPEIIEGVECNRCALTAAHSHLFGQLKEFEKKPEGSIPEKLINAVKDRVHQIEEVLAKPVIDDEDYKKLHTANMVRKCSKSKQILISRPPPLLSIHINRSVFDPRTYMIRKNNSKVLFKSRLNLAPWCCDINEINLDARLPMSKKEKAAQQDSSEDENIGGEYYTKLHERFEQEFEDSEEEKEYDDAEGNYASHYNHTKDISNYDPLNGEVDGVTSDDEDEYIEETDALGNTIKKRIIEHSDVENENVKDNEELQEIDNVSLDEPKINVEDQLETSSDEEDVIPAPPINYARSFSTVPATPLTYSLRSVIVHYGTHNYGHYIAFRKYRGCWWRISDETVYVVDEAEVLSTPGVFMLFYEYDFDEETGKMKDDLEAIQSNNEEDDEKEQEQKGVQEPKESQEQGEGEEQEEGQEQMKFERTEDHRDISGKDVN"}, "B3": {"name": "6-his tagged N-terminally truncated caspase 4 (protein)", "chain": "MGHHHHHHGALKLCPHEEFLRLCKERAEEIYPIKERNNRTRLALIICNTEFDHLPPRNGADFDITGMKELLEGLDYSVDVEENLTARDMESALRAFATRPEHKSSDSTFLVLMSHGILEGICGTVHDEKKPDVLLYDTIFQIFNNRNCLSLKDKPKVIIVQACRGANRGELWVRDSPTSLEVASSQSSENLEEDAVYKTHVEKDFIAFCSSTPHNVSWRDSTMGSIFITQLITCFQKYSWCCHLEEVFRKVQQSFETPRAKAQMPTIERLSMTRYFYLFPGN"}}, "key": {"[1]": {"biological_target": "Human precursor IL-18 (Pro-IL-18), co-expressed in E. coli from the bicistronic pET28 cassette"}, "[2]": {"biological_target": "Human precursor IL-18 expressed as an N-terminal hexa-histidine tagged fusion"}, "[3]": {"biological_target": "Ubiquitin-IL-18 fusion (76 amino acid ubiquitin fused to the N-terminus of mature human IL-18)"}}, "data": [{"protein": "B1", "values": [{"measurement": "cleavage to mature IL-18 on co-expression in E. coli", "setting": "[1]", "result": "cleavage to mature EL-18 with caspase-5 is complete by 18 hours at 29 °C"}, {"measurement": "cleavage of prodomain, SDS-PAGE analysis", "setting": "[2]", "result": "The cleavage reaction of prodomain was completed >90 % according to SDS-PAGE analysis"}]}, {"protein": "B2", "values": [{"measurement": "processing of Ub-IL-18 to mature IL-18 on co-expression in E. coli (Western blot)", "setting": "[3]", "result": "efficient processing of Ub-IL-18 to mature active IL-18"}]}, {"protein": "B3", "values": [{"measurement": "cleavage to mature IL-18 on co-expression in E. coli", "setting": "[1]", "result": "Cleavage to mature IL-18 with caspase-4 is complete by 4 hours at 37 °C or by 18 hours at 29 °C"}, {"measurement": "cleavage of prodomain, SDS-PAGE analysis", "setting": "[2]", "result": "The cleavage reaction of prodomain was completed >90 % according to SDS-PAGE analysis"}]}]}
